Experimental data as given in article PMC10017909, “Improving ethanol tolerance of ethyl carbamate hydrolase by diphasic high pressure molecular dynamic simulations” (AMB Express, 2023).

B1: EC hydrolase (ethyl carbamate hydrolase) (Lysinibacillus fusiformis; H68A/K70R/S325N) (protein)
chain: MTTDLHLKSVEELAPLLASKSLSPVELTKAILDFAEESQPKINSYMAFYREEALARAKEVEQEILQGAYRGMYHGIPMALKDNLYFKDKITTMSSKIHKDFVSDYDATVVEKLRDAGVIFTGKLSMHEYAWGITNNNPHYGPVRNPWDLDKIPGGSSGGSGAAVAAGASVASLGTDTAGSIRIPSSACGIVGLKPTHGRVSKYGCYPLAWSLDHIGPMTKTVKDAAGLLEVIAGFDHQDPTCVNVPVDNYEKQLTGNIKDLVIGINEEYFFNNVDADVEKAVRASIQSLVDSGAKVEVVRIPSLQYAEWAELVTSLSEAAAIHHNDLQKRPQDFGDDIRLLFELGELPSAVDYLQAQQVRRQIKQEFTEIFNKVDVLISPTLPIVASTIGDDFAELNGQKVDLIDNIIRFTGPSNLTGLPALSVPCGFKGNLPIGLQIIGPAFKEGRILNVGYAVEQANPQRNRKPNIFANI
B2: EC hydrolase (ethyl carbamate hydrolase) (Lysinibacillus fusiformis; K70R/S325N) (protein)
chain: MTTDLHLKSVEELAPLLASKSLSPVELTKAILDFAEESQPKINSYMAFYREEALARAKEVEQEILQGHYRGMYHGIPMALKDNLYFKDKITTMSSKIHKDFVSDYDATVVEKLRDAGVIFTGKLSMHEYAWGITNNNPHYGPVRNPWDLDKIPGGSSGGSGAAVAAGASVASLGTDTAGSIRIPSSACGIVGLKPTHGRVSKYGCYPLAWSLDHIGPMTKTVKDAAGLLEVIAGFDHQDPTCVNVPVDNYEKQLTGNIKDLVIGINEEYFFNNVDADVEKAVRASIQSLVDSGAKVEVVRIPSLQYAEWAELVTSLSEAAAIHHNDLQKRPQDFGDDIRLLFELGELPSAVDYLQAQQVRRQIKQEFTEIFNKVDVLISPTLPIVASTIGDDFAELNGQKVDLIDNIIRFTGPSNLTGLPALSVPCGFKGNLPIGLQIIGPAFKEGRILNVGYAVEQANPQRNRKPNIFANI
B3: EC hydrolase (ethyl carbamate hydrolase) (Lysinibacillus fusiformis) (protein)
chain: MTTDLHLKSVEELAPLLASKSLSPVELTKAILDFAEESQPKINSYMAFYREEALARAKEVEQEILQGHYKGMYHGIPMALKDNLYFKDKITTMSSKIHKDFVSDYDATVVEKLRDAGVIFTGKLSMHEYAWGITNNNPHYGPVRNPWDLDKIPGGSSGGSGAAVAAGASVASLGTDTAGSIRIPSSACGIVGLKPTHGRVSKYGCYPLAWSLDHIGPMTKTVKDAAGLLEVIAGFDHQDPTCVNVPVDNYEKQLTGNIKDLVIGINEEYFFNNVDADVEKAVRASIQSLVDSGAKVEVVRIPSLQYAEWAELVTSLSEAAAIHHSDLQKRPQDFGDDIRLLFELGELPSAVDYLQAQQVRRQIKQEFTEIFNKVDVLISPTLPIVASTIGDDFAELNGQKVDLIDNIIRFTGPSNLTGLPALSVPCGFKGNLPIGLQIIGPAFKEGRILNVGYAVEQANPQRNRKPNIFANI
B4: EC hydrolase (ethyl carbamate hydrolase) (Lysinibacillus fusiformis; H68A) (protein)
chain: MTTDLHLKSVEELAPLLASKSLSPVELTKAILDFAEESQPKINSYMAFYREEALARAKEVEQEILQGAYKGMYHGIPMALKDNLYFKDKITTMSSKIHKDFVSDYDATVVEKLRDAGVIFTGKLSMHEYAWGITNNNPHYGPVRNPWDLDKIPGGSSGGSGAAVAAGASVASLGTDTAGSIRIPSSACGIVGLKPTHGRVSKYGCYPLAWSLDHIGPMTKTVKDAAGLLEVIAGFDHQDPTCVNVPVDNYEKQLTGNIKDLVIGINEEYFFNNVDADVEKAVRASIQSLVDSGAKVEVVRIPSLQYAEWAELVTSLSEAAAIHHSDLQKRPQDFGDDIRLLFELGELPSAVDYLQAQQVRRQIKQEFTEIFNKVDVLISPTLPIVASTIGDDFAELNGQKVDLIDNIIRFTGPSNLTGLPALSVPCGFKGNLPIGLQIIGPAFKEGRILNVGYAVEQANPQRNRKPNIFANI
B5: EC hydrolase (ethyl carbamate hydrolase) (Lysinibacillus fusiformis; H68A/S325N) (protein)
chain: MTTDLHLKSVEELAPLLASKSLSPVELTKAILDFAEESQPKINSYMAFYREEALARAKEVEQEILQGAYKGMYHGIPMALKDNLYFKDKITTMSSKIHKDFVSDYDATVVEKLRDAGVIFTGKLSMHEYAWGITNNNPHYGPVRNPWDLDKIPGGSSGGSGAAVAAGASVASLGTDTAGSIRIPSSACGIVGLKPTHGRVSKYGCYPLAWSLDHIGPMTKTVKDAAGLLEVIAGFDHQDPTCVNVPVDNYEKQLTGNIKDLVIGINEEYFFNNVDADVEKAVRASIQSLVDSGAKVEVVRIPSLQYAEWAELVTSLSEAAAIHHNDLQKRPQDFGDDIRLLFELGELPSAVDYLQAQQVRRQIKQEFTEIFNKVDVLISPTLPIVASTIGDDFAELNGQKVDLIDNIIRFTGPSNLTGLPALSVPCGFKGNLPIGLQIIGPAFKEGRILNVGYAVEQANPQRNRKPNIFANI
B6: EC hydrolase (ethyl carbamate hydrolase) (Lysinibacillus fusiformis; K70R) (protein)
chain: MTTDLHLKSVEELAPLLASKSLSPVELTKAILDFAEESQPKINSYMAFYREEALARAKEVEQEILQGHYRGMYHGIPMALKDNLYFKDKITTMSSKIHKDFVSDYDATVVEKLRDAGVIFTGKLSMHEYAWGITNNNPHYGPVRNPWDLDKIPGGSSGGSGAAVAAGASVASLGTDTAGSIRIPSSACGIVGLKPTHGRVSKYGCYPLAWSLDHIGPMTKTVKDAAGLLEVIAGFDHQDPTCVNVPVDNYEKQLTGNIKDLVIGINEEYFFNNVDADVEKAVRASIQSLVDSGAKVEVVRIPSLQYAEWAELVTSLSEAAAIHHSDLQKRPQDFGDDIRLLFELGELPSAVDYLQAQQVRRQIKQEFTEIFNKVDVLISPTLPIVASTIGDDFAELNGQKVDLIDNIIRFTGPSNLTGLPALSVPCGFKGNLPIGLQIIGPAFKEGRILNVGYAVEQANPQRNRKPNIFANI
B7: EC hydrolase (ethyl carbamate hydrolase) (Lysinibacillus fusiformis; A178L) (protein)
chain: MTTDLHLKSVEELAPLLASKSLSPVELTKAILDFAEESQPKINSYMAFYREEALARAKEVEQEILQGHYKGMYHGIPMALKDNLYFKDKITTMSSKIHKDFVSDYDATVVEKLRDAGVIFTGKLSMHEYAWGITNNNPHYGPVRNPWDLDKIPGGSSGGSGAAVAAGASVASLGTDTLGSIRIPSSACGIVGLKPTHGRVSKYGCYPLAWSLDHIGPMTKTVKDAAGLLEVIAGFDHQDPTCVNVPVDNYEKQLTGNIKDLVIGINEEYFFNNVDADVEKAVRASIQSLVDSGAKVEVVRIPSLQYAEWAELVTSLSEAAAIHHSDLQKRPQDFGDDIRLLFELGELPSAVDYLQAQQVRRQIKQEFTEIFNKVDVLISPTLPIVASTIGDDFAELNGQKVDLIDNIIRFTGPSNLTGLPALSVPCGFKGNLPIGLQIIGPAFKEGRILNVGYAVEQANPQRNRKPNIFANI
B8: EC hydrolase (ethyl carbamate hydrolase) (Lysinibacillus fusiformis; S325N) (protein)
chain: MTTDLHLKSVEELAPLLASKSLSPVELTKAILDFAEESQPKINSYMAFYREEALARAKEVEQEILQGHYKGMYHGIPMALKDNLYFKDKITTMSSKIHKDFVSDYDATVVEKLRDAGVIFTGKLSMHEYAWGITNNNPHYGPVRNPWDLDKIPGGSSGGSGAAVAAGASVASLGTDTAGSIRIPSSACGIVGLKPTHGRVSKYGCYPLAWSLDHIGPMTKTVKDAAGLLEVIAGFDHQDPTCVNVPVDNYEKQLTGNIKDLVIGINEEYFFNNVDADVEKAVRASIQSLVDSGAKVEVVRIPSLQYAEWAELVTSLSEAAAIHHNDLQKRPQDFGDDIRLLFELGELPSAVDYLQAQQVRRQIKQEFTEIFNKVDVLISPTLPIVASTIGDDFAELNGQKVDLIDNIIRFTGPSNLTGLPALSVPCGFKGNLPIGLQIIGPAFKEGRILNVGYAVEQANPQRNRKPNIFANI

These proteins were tested on CCOC(N)=O (assay: purified protein). Conditions: free enzyme, EC 0-300 mM, activity assay at 37 °C, pH not stated.
Assay type: biochemical, Lysinibacillus fusiformis
B1 showed a Km of 28.2 ± 4.41 mM. For B2, the Km was 40.82 ± 3.56 mM. In the case of B3, the Km is reported as 37.67 ± 3.55 mM. Work on B4 yielded a Km of 31.38 ± 5.61 mM. In the case of B5, the Km is reported as 33.27 ± 2.31 mM. B6 gave a Km of 33.38 ± 5.67 mM. Work on B7 yielded a Km of 96.78 ± 6.09 mM. With B8 the Km was 45.52 ± 9.41 mM.
